Laboratory results published in patent publication US20200199647A1 (published 2020).
Where two headings read alike, the source gives them in different places.

Assays:
[1] = target: T1, PP1c (human PP1cα amino acids 7-330, N-terminal Thio6/His6 tag) (human, UniProt P62136 7-330); assay: thermophoresis
[2] = target: T1, PP1c (human PP1cα amino acids 7-330, …); assay: thermophoresis; remark: listed apart in the source

T1 sequence (P62136 other isoform, or with tags, fused parts or gaps): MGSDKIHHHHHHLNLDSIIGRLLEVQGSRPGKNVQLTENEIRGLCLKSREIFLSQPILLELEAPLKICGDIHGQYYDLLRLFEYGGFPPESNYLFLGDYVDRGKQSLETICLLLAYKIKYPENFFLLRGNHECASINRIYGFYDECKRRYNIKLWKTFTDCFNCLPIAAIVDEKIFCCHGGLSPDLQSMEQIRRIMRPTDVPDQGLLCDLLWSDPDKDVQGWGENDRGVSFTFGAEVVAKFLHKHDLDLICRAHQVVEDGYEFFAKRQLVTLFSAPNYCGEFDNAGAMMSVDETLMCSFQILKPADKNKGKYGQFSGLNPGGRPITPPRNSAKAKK

| Kd [1] [nM] | Kd [2] [nM] | Binder |
| --- | --- | --- |
| 900 | – | R15B (human PPP1R15B amino acids 340-698, N-terminal MBP-tag, C-terminal His6-tag) (other) RDNPTQFVPAAGDIPGNTQESTEEKIELLTTEVPLALEEESPSEGCPSSEIPMEKEPGEGRISVVDYSYLEGDLPISARPACSNKLIDYILGGASSDLETSSDPEGEDWDEEAEDDGFDSDSSLSDSDLEQDPEGLHLWNSFCSVDPYNPQNFTATIQTAARIVPEEPSDSEKDLSGKSDLENSSQSGSLPETPEHSSGEEDDWESSADEAESLKLWNSFCNSDDPYNPLNFKAPFQTSGENEKGCRDSKTPSESIVAISECHTLLSCKVQLLGSQESECPDSVQRDVLSGGRHTHVKRKKVTFLEEVTEYYISGDEDRKGPWEEFARDGCRFQKRIQETEDAIGYCLTFEHRERMFNRHHHHHH |
| – | 960 | R15B^C (human PPP1R15B amino acids 636-698, N-terminal MBP-tag, C-terminal His6-tag) (other) VKRKKVTFLEEVTEYYISGDEDRKGPWEEFARDGCRFQKRIQETEDAIGYCLTFEHRERMFNRHHHHHH |
